# According to IntAct's records for PubMed 21471202:
# B1: Low-density lipoprotein receptor-related protein 4 (Homo sapiens), O75096 (parent)
# chain: MRRQWGALLLGALLCAHGLASSPECACGRSHFTCAVSALGECTCIPAQWQCDGDNDCGDHSDEDGCILPTCSPLDFHCDNGKCIRRSWVCDGDNDCEDDSDEQDCPPRECEEDEFPCQNGYCIRSLWHCDGDNDCGDNSDEQCDMRKCSDKEFRCSDGSCIAEHWYCDGDTDCKDGSDEENCPSAVPAPPCNLEEFQCAYGRCILDIYHCDGDDDCGDWSDESDCSSHQPCRSGEFMCDSGLCINAGWRCDGDADCDDQSDERNCTTSMCTAEQFRCHSGRCVRLSWRCDGEDDCADNSDEENCENTGSPQCALDQFLCWNGRCIGQRKLCNGVNDCGDNSDESPQQNCRPRTGEENCNVNNGGCAQKCQMVRGAVQCTCHTGYRLTEDGHTCQDVNECAEEGYCSQGCTNSEGAFQCWCETGYELRPDRRSCKALGPEPVLLFANRIDIRQVLPHRSEYTLLLNNLENAIALDFHHRRELVFWSDVTLDRILRANLNGSNVEEVVSTGLESPGGLAVDWVHDKLYWTDSGTSRIEVANLDGAHRKVLLWQNLEKPRAIALHPMEGTIYWTDWGNTPRIEASSMDGSGRRIIADTHLFWPNGLTIDYAGRRMYWVDAKHHVIERANLDGSHRKAVISQGLPHPFAITVFEDSLYWTDWHTKSINSANKFTGKNQEIIRNKLHFPMDIHTLHPQRQPAGKNRCGDNNGGCTHLCLPSGQNYTCACPTGFRKISSHACAQSLDKFLLFARRMDIRRISFDTEDLSDDVIPLADVRSAVALDWDSRDDHVYWTDVSTDTISRAKWDGTGQEVVVDTSLESPAGLAIDWVTNKLYWTDAGTDRIEVANTDGSMRTVLIWENLDRPRDIVVEPMGGYMYWTDWGASPKIERAGMDASGRQVIISSNLTWPNGLAIDYGSQRLYWADAGMKTIEFAGLDGSKRKVLIGSQLPHPFGLTLYGERIYWTDWQTKSIQSADRLTGLDRETLQENLENLMDIHVFHRRRPPVSTPCAMENGGCSHLCLRSPNPSGFSCTCPTGINLLSDGKTCSPGMNSFLIFARRIDIRMVSLDIPYFADVVVPINITMKNTIAIGVDPQEGKVYWSDSTLHRISRANLDGSQHEDIITTGLQTTDGLAVDAIGRKVYWTDTGTNRIEVGNLDGSMRKVLVWQNLDSPRAIVLYHEMGFMYWTDWGENAKLERSGMDGSDRAVLINNNLGWPNGLTVDKASSQLLWADAHTERIEAADLNGANRHTLVSPVQHPYGLTLLDSYIYWTDWQTRSIHRADKGTGSNVILVRSNLPGLMDMQAVDRAQPLGFNKCGSRNGGCSHLCLPRPSGFSCACPTGIQLKGDGKTCDPSPETYLLFSSRGSIRRISLDTSDHTDVHVPVPELNNVISLDYDSVDGKVYYTDVFLDVIRRADLNGSNMETVIGRGLKTTDGLAVDWVARNLYWTDTGRNTIEASRLDGSCRKVLINNSLDEPRAIAVFPRKGYLFWTDWGHIAKIERANLDGSERKVLINTDLGWPNGLTLDYDTRRIYWVDAHLDRIESADLNGKLRQVLVSHVSHPFALTQQDRWIYWTDWQTKSIQRVDKYSGRNKETVLANVEGLMDIIVVSPQRQTGTNACGVNNGGCTHLCFARASDFVCACPDEPDSRPCSLVPGLVPPAPRATGMSEKSPVLPNTPPTTLYSSTTRTRTSLEEVEGRCSERDARLGLCARSNDAVPAAPGEGLHISYAIGGLLSILLILVVIAALMLYRHKKSKFTDPGMGNLTYSNPSYRTSTQEVKIEAIPKPAMYNQLCYKKEGGPDHNYTKEKIKIVEGICLLSGDDAEWDDLKQLRSSRGGLLRDHVCMKTDTVSIQASSGSLDDTETEQLLQEEQSECSSVHTAATPERRGSLPDTGWKHERKLSSESQV
# Variants of: B1
# Settings: with sost_human SOST
row,Variant,effect of a mutation on the interaction
1,R1170W,decreasing interaction
2,W1186S,decreasing interaction
